Groups on a side chain read outwards from the residue. No end group written: not given here. *: point of attachment. DSPE = distearoyl phosphatidyl ethanolamine, CCCCCCCCCCCCCCCCCC(=O)OC[C@H](COP(=O)(O)OCCN*)OC(=O)CCCCCCCCCCCCCCCCC; maleimide = Maleimide, used for thiol-reactive attachment of PEG to a Cys (thioether bond)
B1: V8C38-3.4 kDa DPSE-PEG (peptide)
peptide: HVEGTFTSDVSSYLEGQAAKEFIAWLVKGRGC([maleimide-PEG 3.4 kDa-DSPE])
B2: V8E22C16-40 kDa PEG (peptide)
peptide: HVEGTFTSDC([maleimide-PEG 40 kDa branched])SSYLEEQAAKEFIAWLVKGRG
B3: V8C38-40 kDa PEG (peptide)
peptide: HVEGTFTSDVSSYLEGQAAKEFIAWLVKGRGC([maleimide-PEG 40 kDa branched])
B4: V8C16-3.4 kDa DPSE-PEG (peptide)
peptide: HVEGTFTSDC([maleimide-PEG 3.4 kDa-DSPE])SSYLEGQAAKEFIAWLVKGRG

Target: human GLP-1 receptor (human, UniProt P43220 24-463)
Test: cell-based or functional assay

Q: Which “in vitro potency (EC50) in the CRE-BLAM reporter assay on HEK-293 cells expressing the human GLP-1 receptor, relative to V8GLP-1 equal to 100%” value does the source give for B1 here?
A: The value was 18%.

Q: B2 was tested. Which “in vitro potency (EC50) in the CRE-BLAM reporter assay on HEK-293 cells expressing the human GLP-1 receptor, relative to V8GLP-1 equal to 100%” value did it give?
A: The value was 0.7%.

Q: For B3, which “in vitro potency (EC50) in the CRE-BLAM reporter assay on HEK-293 cells expressing the human GLP-1 receptor, relative to V8GLP-1 equal to 100%” value is on record?
A: Its value is 3%.

Q: For B4, which “in vitro potency (EC50) in the CRE-BLAM reporter assay on HEK-293 cells expressing the human GLP-1 receptor, relative to V8GLP-1 equal to 100%” value is on record?
A: Its value is 4%.

Reference: US20080113905A1 (Eli Lilly, published 2008)
